Substitutions are numbered along the chain they refer to.
Target: the molecule itself
Assay: rotary metal shadowing EM; in vitro assembly assay: after dialysis into 25 mM MES, 150 mM NaCl, 1 mM DTT, 1 mM EGTA pH 6.5, 30% glycerol; dimers scored as singular or incorporated into head-to-tail oligomers

B1: lamin A R25G (natural protein, human, UniProt P02545 1-646, looked up)
chain: METPSQRRATRSGAQASSTPLSPTGITRLQEKEDLQELNDRLAVYIDRVRSLETENAGLRLRITESEEVVSREVSGIKAAYEAELGDARKTLDSVAKERARLQLELSKVREEFKELKARNTKKEGDLIAAQARLKDLEALLNSKEAALSTALSEKRTLEGELHDLRGQVAKLEAALGEAKKQLQDEMLRRVDAENRLQTMKEELDFQKNIYSEELRETKRRHETRLVEIDNGKQREFESRLADALQELRAQHEDQVEQYKKELEKTYSAKLDNARQSAERNSNLVGAAHEELQQSRIRIDSLSAQLSQLQKQLAAKEAKLRDLEDSLARERDTSRRLLAEKEREMAEMRARMQQQLDEYQELLDIKLALDMEIHAYRKLLEGEEERLRLSPSPTSQRSRGRASSHSSQTQGGGSVTKKRKLESTESRSSFSQHARTSGRVAVEEVDEEGKFVRLRNKSNEDQSMGNWQIKRQNGDDPLLTYRFPPKFTLKAGQVVTIWAAGAGATHSPPTDLVWKAQNTWGCGNSLRTALINSTGEEVAMRKLVRSVTVVEDDEDEDGDDLLHHHHGSHCSSSGDPAEYNLRSRTVLCGTCGQPADKASASGSGAQVGGPISSGSSASSVTVTRSYRSVGGSGGGSFGDNLVTRSY
notes: lamin A, human; pre-lamin A without its last 18 amino acids, as m1; mutation associated with EDMD/LGMD1B; source: E. coli (pET28b); purification of the mutants not separately stated
stoichiometry N: 2

B2: lamin A E82K (natural protein, human, UniProt P02545 1-646, looked up)
chain: B1 chain with G25R, E82K
notes: lamin A, human; pre-lamin A without its last 18 amino acids, as m1; mutation associated with DCM-CD; source: E. coli (pET28b); purification of the mutants not separately stated
stoichiometry N: 2

B3: lamin A R401E (natural protein, human, UniProt P02545 1-646, looked up)
chain: B1 chain with G25R, R401E
notes: lamin A, human; pre-lamin A without its last 18 amino acids, as m1; de novo mutant; source: E. coli (pET28b); purification of the mutants not separately stated
stoichiometry N: 2

B4: lamin A E65G (natural protein, human, UniProt P02545 1-646, looked up)
chain: B1 chain with G25R, E65G
notes: as for B1
stoichiometry N: 2

B5: lamin A R388E (natural protein, human, UniProt P02545 1-646, looked up)
chain: B1 chain with G25R, R388E
notes: as for B3
stoichiometry N: 2

B6: lamin A R401C (natural protein, human, UniProt P02545 1-646, looked up)
chain: B1 chain with G25R, R401C
notes: lamin A, human; pre-lamin A without its last 18 amino acids, as m1; mutation associated with EDMD; source: E. coli (pET28b); purification of the mutants not separately stated
stoichiometry N: 2

B7: lamin A E33G (natural protein, human, UniProt P02545 1-646, looked up)
chain: B1 chain with G25R, E33G
notes: as for B1
stoichiometry N: 2

B8: lamin A R388C (natural protein, human, UniProt P02545 1-646, looked up)
chain: B1 chain with G25R, R388C
notes: lamin A, human; pre-lamin A without its last 18 amino acids, as m1; mutation associated with CMD; source: E. coli (pET28b); purification of the mutants not separately stated
stoichiometry N: 2
